{
  "source": "paper PMC9002759",
  "about": "“The Sunflower WRINKLED1 Transcription Factor Regulates Fatty Acid Biosynthesis Genes through an AW Box Binding Sequence with a Particular Base Bias”",
  "binders": {"B1": {"name": "FATA1 AW box 24 bp (dsDNA)", "DNA 1": "CAGTCCTCGTGCATATCGGAGTCT", "DNA 2": "AGACTCCGATATGCACGAGGACTG"}},
  "molecular_target": "HaWRI1_DBD (6-His-TRX-WRI1_DBD) (Helianthus annuus (CAS-6 line), UniProt X2BZR1 51-229)",
  "sequence (X2BZR1 entry or part of it)": "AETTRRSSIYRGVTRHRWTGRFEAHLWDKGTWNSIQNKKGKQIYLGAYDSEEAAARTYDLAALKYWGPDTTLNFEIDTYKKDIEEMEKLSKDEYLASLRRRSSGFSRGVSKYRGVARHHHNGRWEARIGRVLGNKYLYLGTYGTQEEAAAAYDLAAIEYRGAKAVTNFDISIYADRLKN",
  "experiment": "EMSA; polydIdC; 20 mM Tris-HCl pH 8.0, 250 mM NaCl, 2 mM MgCl2, 1% glycerol, 1 mM DTT, 1 mg/mL BSA, 30 min room temperature, gels at 4 °C; DIG EMSA plus 0.05 µg/µL polydIdC",
  "conditions": "protein: recombinant; tags: N-terminal 6xHis-thioredoxin fusion; label: digoxigenin; blunt",
  "data": [
    {"binder": "B1", "values": [
      {"measurement": "binding result", "value": "binds"}
    ]}
  ]
}
